Assay in all cases: cell_activity
The target in series [1] is CCR5 ZFN with wild-type ZC linker (SBS #8266) (artificial) (UniProt P14870). The note with it: average of 2; ZFN pair.
For series [2], the system named is CCR5 ZFN with L6a linker (artificial). The following applies: average of 2; ZFN pair.
The test system of series [3] is CCR5 ZFN with L7a linker (artificial). The note with it: ZFN pair.
In series [4] the test system is mROSA-targeted ZFN pair, Wt/Wt linkers (artificial). The following applies: Neuro2A, CEL-I; repeats 23.2 and 18.7; mock 0.4.
Series [5] deals with mROSA-targeted ZFN pair, Wt/L7a linkers (artificial). The note with it: Neuro2A, CEL-I; mock 0.4.
In series [6] the test system is rat IgM-targeted ZFN pair including L7a linker (artificial). The note with it: rat C6 cells, CEL-I.
Series [7] deals with rat IgM-targeted ZFN pair, ZC linkers (artificial). The following applies: rat C6 cells, CEL-I.

Sequence of CCR5 ZFN with L6a linker (artificial) (chain, as listed by the source): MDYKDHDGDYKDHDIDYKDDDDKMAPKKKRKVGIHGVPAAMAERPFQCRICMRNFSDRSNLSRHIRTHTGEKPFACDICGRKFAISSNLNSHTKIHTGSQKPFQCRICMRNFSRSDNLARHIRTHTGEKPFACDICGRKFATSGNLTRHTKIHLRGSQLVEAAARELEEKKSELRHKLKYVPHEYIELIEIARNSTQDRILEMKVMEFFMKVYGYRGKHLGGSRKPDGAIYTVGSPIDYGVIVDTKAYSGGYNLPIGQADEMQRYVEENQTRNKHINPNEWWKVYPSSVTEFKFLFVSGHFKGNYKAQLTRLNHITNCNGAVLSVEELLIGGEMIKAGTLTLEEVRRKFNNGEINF
Sequence of CCR5 ZFN with L7a linker (artificial) (chain, as listed by the source): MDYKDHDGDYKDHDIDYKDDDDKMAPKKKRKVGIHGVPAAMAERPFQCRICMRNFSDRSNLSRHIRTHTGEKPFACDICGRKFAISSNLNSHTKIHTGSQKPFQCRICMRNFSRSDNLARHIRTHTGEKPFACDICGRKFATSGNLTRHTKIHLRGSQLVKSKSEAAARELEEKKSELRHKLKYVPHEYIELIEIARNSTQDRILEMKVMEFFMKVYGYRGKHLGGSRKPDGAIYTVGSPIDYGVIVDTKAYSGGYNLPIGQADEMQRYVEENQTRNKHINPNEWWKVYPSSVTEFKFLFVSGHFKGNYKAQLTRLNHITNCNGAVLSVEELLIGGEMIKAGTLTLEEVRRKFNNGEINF
Sequence of CCR5 ZFN with wild-type ZC linker (SBS #8266) (artificial) (P14870 other isoform, or with tags, fused parts or gaps): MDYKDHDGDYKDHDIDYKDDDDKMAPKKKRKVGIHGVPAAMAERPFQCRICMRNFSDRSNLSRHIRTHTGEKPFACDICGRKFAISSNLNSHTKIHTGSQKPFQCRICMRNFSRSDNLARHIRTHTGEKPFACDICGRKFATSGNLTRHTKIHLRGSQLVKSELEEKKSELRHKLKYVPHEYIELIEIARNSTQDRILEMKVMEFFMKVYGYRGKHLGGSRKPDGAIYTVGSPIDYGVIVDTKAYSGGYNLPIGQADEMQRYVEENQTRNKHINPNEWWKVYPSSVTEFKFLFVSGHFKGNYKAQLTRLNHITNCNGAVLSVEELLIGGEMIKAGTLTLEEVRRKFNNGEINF

In turn, CCR5 ZFN target, 4 bp gap returned an activity in series [1] of 1.2 % NHEJ.

For the substance CCR5 ZFN target, 5 bp gap, the activity in series [1] is 35 % NHEJ; in series [2] it was 39.3 % NHEJ.

Consider CCR5 ZFN target, 6 bp gap, for which the values for the activity in series [1], in series [3] (average of 2) and in series [2] were 11.1 % NHEJ, 31.8 % NHEJ and 25.4 % NHEJ, respectively.

Take CCR5 ZFN target, 7 bp gap: the activity in series [3] (average of 2) turned out to be 39.6 % NHEJ; in series [2], 5.1 % NHEJ.

Turning to CCR5 ZFN target, 8 bp gap, the activity in series [3] (average of 2 as printed) came to 6.1 % NHEJ.

For the substance mROSA target, 6 bp gap, the values for the activity in series [4] and in series [5] were 22.6 % NHEJ and 7.5 % NHEJ, respectively.

Consider rat IgM target, 6 bp gap, for which the values for the activity in series [6] and in series [7] were 2.43 % NHEJ and 1.93 % NHEJ, respectively.

The values above are taken from US20180245058.
